These results are taken from article PMC8980529, “Complement Factor H-Related Proteins FHR1 and FHR5 Interact With Extracellular Matrix Ligands, Reduce Factor H Regulatory Activity and Enhance Complement Activation” (Frontiers in Immunology, 2022).

B1: Human vitronectin (natural protein, UniProt P04004 20-478, looked up)
chain: DQESCKGRCTEGFNVDKKCQCDELCSYYQSCCTDYTAECKPQVTRGDVFTMPEDEYTVYDDGEEKNNATVHEQVGGPSLTSDLQAQSKGNPEQTPVLKPEEEAPAPEVGASKPEGIDSRPETLHPGRPQPPAEEELCSGKPFDAFTDLKNGSLFAFRGQYCYELDEKAVRPGYPKLIRDVWGIEGPIDAAFTRINCQGKTYLFKGSQYWRFEDGVLDPDYPRNISDGFDGIPDNVDAALALPAHSYSGRERVYFFKGKQYWEYQFQHQPSQEECEGSSLSAVFEHFAMMQRDSWEDIFELLFWGRTSAGTRQPQFISRDWHGVPGQVDAAMAGRIYISGMAPRPSLAKKQRFRHRNRKGYRSQRGHSRGRNQNSRRPSRATWLSLFSSEESNLGANNYDDYRMDWLVPATCEPIQSVFFFSGDKYYRVNLRTRRVDTVDPPYPRSIAQYWLGCPAPGHL
notes: vitronectin, human; source: bought: Sigma-Aldrich
B2: Recombinant human factor H-related protein 1 (natural protein, UniProt Q03591 19-330, looked up)
chain: EATFCDFPKINHGILYDEEKYKPFSQVPTGEVFYYSCEYNFVSPSKSFWTRITCTEEGWSPTPKCLRLCFFPFVENGHSESSGQTHLEGDTVQIICNTGYRLQNNENNISCVERGWSTPPKCRSTDTSCVNPPTVQNAHILSRQMSKYPSGERVRYECRSPYEMFGDEEVMCLNGNWTEPPQCKDSTGKCGPPPPIDNGDITSFPLSVYAPASSVEYQCQNLYQLEGNKRITCRNGQWSEPPKCLHPCVISREIMENYNIALRWTAKQKLYLRTGESAEFVCKRGYRLSSRSHTLRTTCWDGKLEYPTCAKR
notes: complement factor H-related protein 1 (FHR1), human, recombinant; Commercial recombinant protein; also called FHR1; source: bought: Novoprotein via Gentaur (recombinant)
B3: Recombinant human factor H-related protein 5 (natural protein, UniProt Q9BXR6 19-569, looked up)
chain: EGTLCDFPKIHHGFLYDEEDYNPFSQVPTGEVFYYSCEYNFVSPSKSFWTRITCTEEGWSPTPKCLRMCSFPFVKNGHSESSGLIHLEGDTVQIICNTGYSLQNNEKNISCVERGWSTPPICSFTKGECHVPILEANVDAQPKKESYKVGDVLKFSCRKNLIRVGSDSVQCYQFGWSPNFPTCKGQVRSCGPPPQLSNGEVKEIRKEEYGHNEVVEYDCNPNFIINGPKKIQCVDGEWTTLPTCVEQVKTCGYIPELEYGYVQPSVPPYQHGVSVEVNCRNEYAMIGNNMITCINGIWTELPMCVATHQLKRCKIAGVNIKTLLKLSGKEFNHNSRIRYRCSDIFRYRHSVCINGKWNPEVDCTEKREQFCPPPPQIPNAQNMTTTVNYQDGEKVAVLCKENYLLPEAKEIVCKDGRWQSLPRCVESTAYCGPPPSINNGDTTSFPLSVYPPGSTVTYRCQSFYKLQGSVTVTCRNKQWSEPPRCLDPCVVSEENMNKNNIQLKWRNDGKLYAKTGDAVEFQCKFPHKAMISSPPFRAICQEGKFEYPICE
notes: complement factor H-related protein 5 (FHR5), human, recombinant; called 'full-length FHR5' in the discussion; Commercial recombinant protein; The discussion speaks of 'the dimerized full-length protein'; also called FHR5; full-length FHR5; source: bought: Novoprotein via Gentaur (recombinant)

Details in all cases: both partners purified
The target in one assay is T1, Purified human factor H (human, UniProt P08603 19-1231).
T1 construct: complement factor H, human, 155-kDa serum glycoprotein, 20 CCP domains; also called FH; source: bought: Merck (purified human)
Kind of assay: peptide or protein array; competition: printed ECM proteins incubated with 25 µg/ml FH with or without FHR1 (5, 25, 50 µg/ml) or FHR5 (0.5, 5, 20 µg/ml); bound FH detected with mAb A254 that does not cross-react with FHR1 and FHR5.

Assay [1] has as its target B3. Kind of assay: peptide or protein array; ECM proteins (0.5 mg/ml) printed on nitrocellulose-covered slides in triplicates, blocked with 4% BSA; incubated with FHR1 (5, 25, 50 µg/ml) or FHR5 (0.5, 5, 20 µg/ml); detected with goat anti-human FH or anti-FHR5 and Alexa-647 anti-goat IgG; signal above gelatin taken as binding.
The assay “Human vitronectin” addresses B1. Described as above.
Another assay concerns the target T2, C3(H2O) (human, UniProt P01024 23-667; P01024 672-1663).
T2 construct: complement C3 beta chain, human; complement C3 alpha chain, human; Same chains as C3; source: generated from purified human C3 (Merck) with ten freeze/thaw cycles
Kind of assay: ELISA; 10 µg/ml FHR5, CCPs 1-4, CCPs 3-7, CCPs 8-9 and alpha-1-antitrypsin immobilised, incubated with 5 µg/ml C3, C3(H2O) and C3b; detected with anti-human C3. On the technique in general: In an ELISA, binding on a coated surface is turned into a signal by an enzyme label.

Another assay addresses T3, Purified human C3b (human, UniProt P01024 23-667; P01024 749-1663).
T3 construct: complement C3 beta chain, human; complement C3b alpha' chain, human; also called soluble C3b; fluid-phase C3b; source: bought: Merck (purified human)
Kind of assay: ELISA; FHR5, CCPs 1-4, CCPs 3-7, CCPs 8-9 and HSA immobilised at 5 µg/ml, blocked with 4% BSA; 20 µg/ml C3b, iC3b, C3c or 10 µg/ml C3d added; detected with anti-human C3 or anti-human C3d.

T3 sequence (P01024 23-667, chain 1 of 2): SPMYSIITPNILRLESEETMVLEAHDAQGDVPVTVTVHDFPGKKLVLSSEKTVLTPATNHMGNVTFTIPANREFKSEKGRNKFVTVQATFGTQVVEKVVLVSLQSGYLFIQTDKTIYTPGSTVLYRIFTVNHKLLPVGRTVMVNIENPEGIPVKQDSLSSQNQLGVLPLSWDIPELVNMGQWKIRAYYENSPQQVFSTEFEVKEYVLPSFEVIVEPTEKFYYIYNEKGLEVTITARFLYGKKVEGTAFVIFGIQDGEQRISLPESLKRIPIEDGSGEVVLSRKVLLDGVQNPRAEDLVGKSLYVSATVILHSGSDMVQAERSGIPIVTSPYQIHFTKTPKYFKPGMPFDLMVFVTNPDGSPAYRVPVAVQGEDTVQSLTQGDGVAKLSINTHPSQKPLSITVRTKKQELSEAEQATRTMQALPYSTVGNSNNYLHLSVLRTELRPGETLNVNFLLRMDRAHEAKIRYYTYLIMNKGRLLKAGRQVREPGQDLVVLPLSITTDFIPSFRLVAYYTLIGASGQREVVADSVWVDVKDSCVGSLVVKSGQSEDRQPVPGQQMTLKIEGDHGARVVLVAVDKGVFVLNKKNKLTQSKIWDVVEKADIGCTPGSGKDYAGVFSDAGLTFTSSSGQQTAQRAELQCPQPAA
T3 sequence (P01024 749-1663, chain 2 of 2): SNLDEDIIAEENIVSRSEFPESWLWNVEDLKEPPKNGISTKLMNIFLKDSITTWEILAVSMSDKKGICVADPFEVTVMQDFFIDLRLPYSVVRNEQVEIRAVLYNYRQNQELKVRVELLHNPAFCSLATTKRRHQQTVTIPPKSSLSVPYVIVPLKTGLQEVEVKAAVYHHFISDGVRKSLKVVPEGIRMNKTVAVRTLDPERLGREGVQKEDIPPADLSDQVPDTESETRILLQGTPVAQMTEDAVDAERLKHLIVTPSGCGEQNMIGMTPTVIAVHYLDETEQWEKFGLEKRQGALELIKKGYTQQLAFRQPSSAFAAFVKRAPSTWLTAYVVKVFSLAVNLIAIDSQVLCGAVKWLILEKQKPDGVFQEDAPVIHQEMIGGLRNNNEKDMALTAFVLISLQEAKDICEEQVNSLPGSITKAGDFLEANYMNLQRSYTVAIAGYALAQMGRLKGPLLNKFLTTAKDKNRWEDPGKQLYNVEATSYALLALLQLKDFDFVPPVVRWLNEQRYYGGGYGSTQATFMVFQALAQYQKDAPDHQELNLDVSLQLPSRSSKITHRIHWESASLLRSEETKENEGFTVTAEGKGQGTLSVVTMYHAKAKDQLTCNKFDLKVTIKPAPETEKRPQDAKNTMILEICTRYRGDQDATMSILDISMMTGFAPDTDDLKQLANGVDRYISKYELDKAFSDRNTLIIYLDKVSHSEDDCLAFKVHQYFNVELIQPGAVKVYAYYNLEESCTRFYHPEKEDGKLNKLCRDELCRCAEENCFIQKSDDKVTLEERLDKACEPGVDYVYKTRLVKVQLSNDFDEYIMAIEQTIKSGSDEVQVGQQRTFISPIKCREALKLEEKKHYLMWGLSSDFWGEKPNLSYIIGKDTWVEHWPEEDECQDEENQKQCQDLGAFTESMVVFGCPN
T2 sequence (P01024 23-667, chain 1 of 2): as the sequence (P01024 23-667, chain 1 of 2) above
T2 sequence (P01024 672-1663, chain 2 of 2): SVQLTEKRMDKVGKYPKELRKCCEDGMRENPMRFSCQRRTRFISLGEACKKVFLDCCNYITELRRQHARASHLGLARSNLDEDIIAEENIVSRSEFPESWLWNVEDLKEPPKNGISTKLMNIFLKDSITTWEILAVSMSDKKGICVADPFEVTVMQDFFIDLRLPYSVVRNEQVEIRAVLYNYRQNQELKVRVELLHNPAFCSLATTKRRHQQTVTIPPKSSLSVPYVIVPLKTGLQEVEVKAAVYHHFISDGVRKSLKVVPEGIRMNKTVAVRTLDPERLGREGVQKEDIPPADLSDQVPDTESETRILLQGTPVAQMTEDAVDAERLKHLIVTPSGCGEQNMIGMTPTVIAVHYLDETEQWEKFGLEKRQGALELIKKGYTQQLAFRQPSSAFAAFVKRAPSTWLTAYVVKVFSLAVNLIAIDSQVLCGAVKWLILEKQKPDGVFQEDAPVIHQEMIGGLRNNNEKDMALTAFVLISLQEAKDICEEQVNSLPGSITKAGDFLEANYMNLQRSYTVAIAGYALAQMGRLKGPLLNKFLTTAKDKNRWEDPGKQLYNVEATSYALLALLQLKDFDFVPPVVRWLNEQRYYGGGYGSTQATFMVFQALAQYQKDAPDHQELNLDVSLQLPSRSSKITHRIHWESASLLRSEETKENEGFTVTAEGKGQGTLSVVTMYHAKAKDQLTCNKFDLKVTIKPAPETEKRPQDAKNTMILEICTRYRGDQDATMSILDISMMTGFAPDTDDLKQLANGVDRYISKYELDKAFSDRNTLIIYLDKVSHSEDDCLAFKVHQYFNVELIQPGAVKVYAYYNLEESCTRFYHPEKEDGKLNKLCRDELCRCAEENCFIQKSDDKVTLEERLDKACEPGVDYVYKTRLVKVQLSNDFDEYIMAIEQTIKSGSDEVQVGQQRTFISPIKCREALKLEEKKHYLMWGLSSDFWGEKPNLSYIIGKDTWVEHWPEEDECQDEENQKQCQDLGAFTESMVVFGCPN

For the molecule B1, the binding result (with Purified human factor H; in assay [1]) was “binds” in each case. With B2, the binding result with Human vitronectin is on record as “binds”. With B3, the binding result with C3(H2O) and with Purified human C3b was “binds” each time.
